For assay [1], the target named is T1, human CCR8 (human, UniProt P51685 1-355).
T1 construct: Native CCR8 on human PBMC (CCR8+ CD3+ or CCR8+ CD4+ lymphocytes); also called chemokine (C-C motif) receptor 8
Kind of assay: flow blocking, PBMC CCR8+CD3+; competitor PE-AB5. In a few lines:
(§1)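 Measures displacement of a PE-conjugated competitor (0.25 μg, 15 min, dark) after preincubation with 10 μg unlabeled antibody or isotype. CCR8+ CD4+ or CD3+ lymphocyte MFI is read by flow cytometry and reported as percent blocking relative to isotype.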

The target of assay [2] is T1, human CCR8. Kind of assay: flow blocking, PBMC CCR8+CD3+; competitor PE-AB6. In a few lines:
as §1

Assay [3] has as its target T1, human CCR8. Kind of assay: flow blocking, PBMC CCR8+CD3+; competitor PE-AB7. A digest of the protocol:
as §1

Assay [4] has as its target T1, human CCR8. Kind of assay: flow blocking, PBMC CCR8+CD3+; competitor PE-AB8. A digest of the protocol: as §1
Assay [5] deals with T1, human CCR8. In words: flow blocking, PBMC CCR8+CD4+; competitor PE-AB1. A digest of the protocol: (§2)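 Competition by flow cytometry: 10 μg unlabeled antibody preblock, then 0.25 μg PE-competitor with T-cell marker for 15 min. MFI gated on CCR8+ CD4+ or CD3+ cells; 100 − percent of isotype MFI.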
The target of assay [6] is T1, human CCR8. Kind of assay: flow blocking, PBMC CCR8+CD4+; competitor PE-AB2. In a few lines:
as §2

The target of assay [7] is T1, human CCR8. In words: flow blocking, PBMC CCR8+CD4+; competitor PE-AB3. A digest of the protocol: as §2
For assay [8], the target named is T1, human CCR8. Kind of assay: flow blocking, PBMC CCR8+CD4+; competitor PE-AB4. In a few lines:
as §2

The target in assay [9] is T1, human CCR8. Kind of assay: flow blocking, PBMC CCR8+CD4+; competitor PE-AB5. In a few lines: as §2
Assay [10] concerns the target T1, human CCR8. In words: flow blocking, PBMC CCR8+CD4+; competitor PE-AB6.
Assay [11] has as its target T1, human CCR8. Kind of assay: flow blocking, PBMC CCR8+CD3+; competitor PE-433H. A digest of the protocol:
as §1

The target of assay [12] is T1, human CCR8. In words: flow blocking, PBMC CCR8+CD3+; competitor PE-AB10. A digest of the protocol: as §1
The target of assay [13] is T1, human CCR8. Kind of assay: flow blocking, PBMC CCR8+CD3+; competitor PE-AB11. In a few lines: as §1
In assay [14] the target is T1, human CCR8. Kind of assay: flow blocking, PBMC CCR8+CD3+; competitor PE-AB12. A digest of the protocol: as §1
The target in assay [15] is T1, human CCR8. In words: flow blocking, PBMC CCR8+CD3+; competitor PE-AB13. A digest of the protocol:
as §1

Assay [16] deals with T1, human CCR8. In words: flow blocking, PBMC CCR8+CD3+; competitor PE-AB14. In a few lines: as §1
For assay [17], the target named is T1, human CCR8. Kind of assay: flow blocking, PBMC CCR8+CD3+; competitor PE-AB15. A digest of the protocol: as §1
The target of assay [18] is T1, human CCR8. Kind of assay: flow blocking, PBMC CCR8+CD4+; competitor PE-433H. A digest of the protocol: (§3)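 Human PBMC (100 μL suspension) were pre-blocked with 10 μg of each unlabelled anti-CCR8 antibody or isotype control. Cells were then stained 15 min in the dark with 0.25 μg of the PE-conjugated competitor antibody plus anti-CD4 or anti-CD3. Read-out by flow cytometry as MFI on CCR8+CD4+ or CCR8+CD3+ lymphocytes.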

Assay [19] deals with T1, human CCR8. In words: flow blocking, PBMC CCR8+CD4+; competitor PE-AB10. A digest of the protocol: as §2
The target in assay [20] is T1, human CCR8. Kind of assay: flow blocking, PBMC CCR8+CD4+; competitor PE-AB11. In a few lines:
as §2

Assay [21] addresses T1, human CCR8. Kind of assay: flow blocking, PBMC CCR8+CD4+; competitor PE-AB12. A digest of the protocol: as §2
The target of assay [22] is T1, human CCR8. Kind of assay: flow blocking, PBMC CCR8+CD4+; competitor PE-AB13. A digest of the protocol:
as §3

For assay [23], the target named is T1, human CCR8. In words: flow blocking, PBMC CCR8+CD4+; competitor PE-AB14. In a few lines:
as §3

Assay [24] has as its target T1, human CCR8. In words: flow blocking, PBMC CCR8+CD4+; competitor PE-AB15. In a few lines:
as §2

Assay [25] deals with T1, human CCR8. Kind of assay: flow blocking, PBMC CCR8+CD3+; competitor PE-L263G8. A digest of the protocol: as §1
Assay [26] addresses human chemokine (C-C motif) receptor 8 (CCR8) (human) (UniProt P51685). In words: flow cytometry blocking, PBMC CCR8+ CD4+ cells; competitor PE-AB6 (its MFI is read).
In assay [27] the target is T1, human CCR8. In words: flow, PBMC CCR8+CD3+; PE-L263G8 staining after isotype block.
The target in assay [28] is T2, human chemokine (C-C motif) receptor 8 (CCR8) (human, UniProt P51685 1-355). Kind of assay: cell-based or functional assay.
T2 sequence (P51685 whole entry): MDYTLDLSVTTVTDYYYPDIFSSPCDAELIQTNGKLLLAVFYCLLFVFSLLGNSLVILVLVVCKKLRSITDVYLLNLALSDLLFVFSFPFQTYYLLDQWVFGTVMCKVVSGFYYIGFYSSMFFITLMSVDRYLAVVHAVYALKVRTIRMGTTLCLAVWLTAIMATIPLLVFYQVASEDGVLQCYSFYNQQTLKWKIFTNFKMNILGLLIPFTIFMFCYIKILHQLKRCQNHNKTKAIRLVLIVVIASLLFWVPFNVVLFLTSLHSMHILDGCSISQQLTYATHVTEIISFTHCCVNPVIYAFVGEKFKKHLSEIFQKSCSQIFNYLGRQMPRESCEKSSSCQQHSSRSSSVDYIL
The target in assay [29] is T2, human chemokine (C-C motif) receptor 8 …. In words: cell-based or functional assay. The source holds these as a separate data set.
For assay [30] the target is unchanged. In words: flow cytometry blocking, PBMC CCR8+ CD4+ cells; competitor PE-AB1 (its MFI is read). A digest of the protocol:
as §2

The target is the same in assay [31]. Kind of assay: flow cytometry blocking, PBMC CCR8+ CD4+ cells; competitor PE-AB2 (its MFI is read). A digest of the protocol: as §2
For assay [32] the target is unchanged. Kind of assay: flow cytometry blocking, PBMC CCR8+ CD4+ cells; competitor PE-AB3 (its MFI is read). In a few lines: as §2
Assay [33] has the same target. Kind of assay: flow cytometry blocking, PBMC CCR8+ CD4+ cells; competitor PE-AB4 (its MFI is read). In a few lines:
as §2

The target is the same in assay [34]. In words: flow cytometry blocking, PBMC CCR8+ CD4+ cells; competitor PE-AB5 (its MFI is read). In a few lines:
as §2

Assay [35] has the same target. Kind of assay: flow cytometry blocking, PBMC CCR8+ CD4+ cells; competitor PE-AB6 (its MFI is read). A digest of the protocol:
as §2

For assay [36] the target is unchanged. Kind of assay: flow cytometry blocking, PBMC CCR8+ CD4+ cells; competitor PE-AB10 (its MFI is read). A digest of the protocol: as §2
The target is the same in assay [37]. Kind of assay: flow cytometry blocking, PBMC CCR8+ CD4+ cells; competitor PE-AB11 (its MFI is read). In a few lines: as §2
Assay [38] shares this target. In words: flow cytometry blocking, PBMC CCR8+ CD4+ cells; competitor PE-AB12 (its MFI is read). A digest of the protocol: as §2
The target is the same in assay [39]. In words: flow cytometry blocking, PBMC CCR8+ CD4+ cells; competitor PE-AB13 (its MFI is read). A digest of the protocol:
as §2

The target is the same in assay [40]. In words: flow cytometry blocking, PBMC CCR8+ CD4+ cells; competitor PE-AB14 (its MFI is read). In a few lines: as §2
Assay [41] shares this target. Kind of assay: flow cytometry blocking, PBMC CCR8+ CD4+ cells; competitor PE-AB15 (its MFI is read). In a few lines: as §2
Assay [42] has the same target. Kind of assay: flow cytometry blocking, PBMC CCR8+ CD4+ cells; competitor PE-ABII (its MFI is read). A digest of the protocol:
as §2

In assay [43] the target is T1, human CCR8. Kind of assay: flow, PBMC CCR8+CD3+; PE-433H staining after isotype block.
The target in assay [44] is T1, human CCR8. In words: flow, PBMC CCR8+CD4+; PE-433H staining after isotype block.

T1 sequence (P51685 whole entry): as above
Sequence of human chemokine (C-C motif) receptor 8 (CCR8) (human) (P51685 whole entry): as above

With isotype control (antibody), the % Blocking with human CCR8 [1], with human CCR8 [2], in the assay with human CCR8 [3], in the assay with human CCR8 [4], with human CCR8 [5] and in the assay with human CCR8 [6] was 0% each time. The % Blocking with human CCR8 [7], in the assay with human CCR8 [8], in the assay with human CCR8 [9], with human CCR8 [10], in the assay with human CCR8 [11] and with human CCR8 [12] was 0% in each case. Also, the % Blocking with human CCR8 [13], with human CCR8 [14], with human CCR8 [15], with human CCR8 [16], in the assay with human CCR8 [17] and with human CCR8 [18] was 0% throughout. The % Blocking with human CCR8 [19], with human CCR8 [20], with human CCR8 [21], with human CCR8 [22], in the assay with human CCR8 [23] and with human CCR8 [24] was 0% each time. The % Blocking (with human CCR8 [25]; in assay [26]) was 0% in each case.
Commercial L263G8 (antibody): the MFI in the assay with human CCR8 [27] worked out at 674.

B1: AB11 (antibody, V domains shown)
VH: EVQLVESGGGLVQPKGSLKLSCAASGFAFNTYAMNWVRQAPGKGLEWIARLRSKSNFYATYYADSVKDRFTISRDDSQSMLYLQMNNLKTEDTAVYYCVRGRELGPSYAMDYWGQGTSVTVSS
VL: DIVMTQAAPSVPVTPGESVSISCRSSKSLLHSNGNTYLYWFLQRPGQSPQLLIYRMSNLASGVPDRFSGSGSGTAFTLRISRVEAEDVGVYYCMQHLEYPYTFGGGTKLEIK
notes: Hybridoma monoclonal; also called antibody 11; clone 11
With B1, the “ratio of Target/Control cells after AB11 plus complement” value in assay [28] was determined as 0.103. Moreover, the “% hCCR8-Ba/F3 - THP-1 complexes” value in assay [29] was found to be 1.12%. Besides, the “% Blocking” value in assay [30] was -48.1%; in assay [31] it was -53.5%; in assay [32], -61.7%; in assay [33], -53.4%; in [34], -36%; in assay [35], -36.2%. Also, the “% Blocking” value was 34.5% in assay [36]; 25.3% in assay [37]; 0.83% in assay [38]; 7.44% in [39]; -1190% in assay [40]; -75.1% in assay [41]. The “% Blocking” value in assay [42] was found to be 16.6%. In addition, the MFI in assay [30] was 971; in assay [31], 1030; in assay [32], 1120; in assay [33], 1050; in assay [34], 1020; in assay [35], 1070. The MFI in [36] was 661; in assay [37] it was 674; in [38], 968; in [39] it was 867; in [40] it was 11400; in assay [41] it was 1390. Moreover, in assay [42], the MFI came to 924.

B2: Commercial 433H (antibody, from another filing, V domains shown)
VH: EVQLVETGGGLVQPKGSLRLSCAASGFPFNTFAMNWVRQAPGKGLEWLARIRSKSNNYATYYADSVKDRFTISRDDSRRMLYLLMNNVKFEDTAIYYCVRGKENNYGYAMDYWGQGTSVTVSS
VL: DIVMTQAAPSVPVTPGESVSISCRSSQSLLHSNGNTYLYWFLQRPGQSPQLLIYRMSNLASGVPDRFSGSGSGTAFTLRISRVEAEDVGVYYCMQHLEYPFTFGIGTKLELKR
Turning to B2, in the assay with human CCR8 [43], the MFI amounted to 886. In addition, in the assay with human CCR8 [44], the % Positive cells came out at 1.76%.

The values are drawn from patent US20240360228A1 (BIOLEGEND, published 2024).
